Test results as given in US20090118185A1 (UNIVERSITY OF ROCHESTER, published 2009).
Changes are numbered by the printed parent chain.

Tests used:
[1] = system: 336(P4-P3′)562 factor VIII mutant (procofactor)
[2] = system: 562(P4-P2)336 factor VIII mutant (procofactor)
[3] = system: 336(P4-P2)562 factor VIII mutant (procofactor)
[4] = system: 336(P1′-P3′)562 factor VIII mutant (procofactor)
[5] = system: 562(P4-P3′)336 factor VIII mutant (procofactor)
[6] = target: T1, human activated protein C (human, UniProt P04070 43-197; P04070 212-461); test: cell-based or functional assay
T1 sequence (P04070 43-197, chain 1 of 2): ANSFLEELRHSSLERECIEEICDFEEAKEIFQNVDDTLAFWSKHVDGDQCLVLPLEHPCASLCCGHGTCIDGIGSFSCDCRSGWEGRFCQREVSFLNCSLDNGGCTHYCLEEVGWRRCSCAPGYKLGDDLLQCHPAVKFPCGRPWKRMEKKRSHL
T1 sequence (P04070 212-461, chain 2 of 2): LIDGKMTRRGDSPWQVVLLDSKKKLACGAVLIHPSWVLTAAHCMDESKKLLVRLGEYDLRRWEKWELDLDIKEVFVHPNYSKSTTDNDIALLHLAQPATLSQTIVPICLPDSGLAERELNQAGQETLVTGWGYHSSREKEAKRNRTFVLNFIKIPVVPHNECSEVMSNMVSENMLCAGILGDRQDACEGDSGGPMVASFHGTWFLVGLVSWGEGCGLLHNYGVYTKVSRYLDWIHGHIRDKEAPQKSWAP

[7] = target: T1, human activated protein C; test: cell-based or functional assay; remark: listed apart in the source
[8] = target: T1, human activated protein C; test: competitive inhibition of APC-catalysed cleavage of WT factor VIIIa A1 subunit by the mutant (0-200 nM); Western blot densitometry, fit to competitive inhibition model with Km 102 nM
Protocol: Aliquots were taken at various time points (0-20 min) and subjected to SDS-PAGE. […] The amount of the A1336 (nM) generated over time was determined based on the amount of WT A1 substrate, calculated by subtracting the amount of the mutant A1 from the total amount of A1 subunit.
Factor VIII (130 nM) was activated by addition of 10-20 nM thrombin in 20 mM HEPES pH 7.2, 100 mM NaCl, 5 mM CaCl₂, 0.01 % Tween 20, and 100 μg/ml bovine serum albumin (Buffer A) and reactions were run at 37° C. Thrombin was inhibited after 2 min by the addition of 10-20 U/ml hirudin, and the resultant factor VIIIa was reacted with APC (2 or 40 nM) in the presence of 100 μM phospholipid vesicles. Aliquots were removed at the indicated times to assess residual factor VIIIa activity by factor Xa generation assay and proteolysis of subunits by Western blotting.

[9] = target: T1, human activated protein C; test: Ki from competitive inhibition of APC cleavage against the literature Km (102 nM) of WT factor VIIIa for APC
Protocol: The amount of the A1336 (nM) generated over time was determined based on the amount of WT A1 substrate, calculated by subtracting the amount of the mutant A1 from the total amount of A1 subunit.
The rationale for this approach was that if proteinase binding to the mutant were unaffected, then it would efficiently compete with the WT substrate. Furthermore, since the mutant remains essentially uncleaved at the A1 site during a truncated time course, it would serve as an inhibitor of detected cleavage of the WT substrate.

α-thrombin
rates of cleavage of factor VIII and the generation of factor VIIIa subunits [1]: indistinguishable from that for WT factor VIII | rates of cleavage of factor VIII and the generation of factor VIIIa subunits [2]: indistinguishable from that for WT factor VIII | rates of cleavage of factor VIII and the generation of factor VIIIa subunits [3]: indistinguishable from that for WT factor VIII | rates of cleavage of factor VIII and the generation of factor VIIIa subunits [4]: indistinguishable from that for WT factor VIII | rates of cleavage of factor VIII and the generation of factor VIIIa subunits [5]: indistinguishable from that for WT factor VIII

B1: WT factor VIIIa (B-domainless recombinant human factor VIII activated by thrombin) (other)
chain 1: ATRRYYLGAVELSWDYMQSDLGELPVDARFPPRVPKSFPFNTSVVYKKTLFVEFTVHLFNIAKPRPPWMGLLGPTIQAEVYDTVVITLKNMASHPVSLHAVGVSYWKASEGAEYDDQTSQREKEDDKVFPGGSHTYVWQVLKENGPMASDPLCLTYSYLSHVDLVKDLNSGLIGALLVCREGSLAKEKTQTLHKFILLFAVFDEGKSWHSETKNSLMQDRDAASARAWPKMHTVNGYVNRSLPGLIGCHRKSVYWHVIGMGTTPEVHSIFLEGHTFLVRNHRQASLEISPITFLTAQTLLMDLGQFLLFCHISSHQHDGMEAYVKVDSCPEEPQLRMKNNEEAEDYDDDLTDSEMDVVRFDDDNSPSFIQIR
chain 2: SVAKKHPKTWVHYIAAEEEDWDYAPLVLAPDDRSYKSQYLNNGPQRIGRKYKKVRFMAYTDETFKTREAIQHESGILGPLLYGEVGDTLLIIFKNQASRPYNIYPHGITDVRPLYSRRLPKGVKHLKDFPILPGEIFKYKWTVTVEDGPTKSDPRCLTRYYSSFVNMERDLASGLIGPLLICYKESVDQRGNQIMSDKRNVILFSVFDENRSWYLTENIQRFLPNPAGVQLEDPEFQASNIMHSINGYVFDSLQLSVCLHEVAYWYILSIGAQTDFLSVFFSGYTFKHKMVYEDTLTLFPFSGETVFMSMENPGLWILGCHNSDFRNRGMTALLKVSSCDKNTGDYYEDSYEDISAYLLSKNNAIEPR
chain 3: SFQKKTRHYFIAAVERLWDYGMSSSPHVLRNRAQSGSVPQFKKVVFQEFTDGSFTQPLYRGELNEHLGLLGPYIRAEVEDNIMVTFRNQASRPYSFYSSLISYEEDQRQGAEPRKNFVKPNETKTYFWKVQHHMAPTKDEFDCKAWAYFSDVDLEKDVHSGLIGPLLVCHTNTLNPAHGRQVTVQEFALFFTIFDETKSWYFTENMERNCRAPCNIQMEDPTFKENYRFHAINGYIMDTLPGLVMAQDQRIRWYLLSMGSNENIHSIHFSGHVFTVRKKEEYKMALYNLYPGVFETVEMLPSKAGIWRVECLIGEHLHAGMSTLFLVYSNKCQTPLGMASGHIRDFQITASGQYGQWAPKLARLHYSGSINAWSTKEPFSWIKVDLLAPMIIHGIKTQGARQKFSSLYISQFIIMYSLDGKKWQTYRGNSTGTLMVFFGNVDSSGIKHNIFNPPIIARYIRLHPTHYSIRSTLRMELMGCDLNSCSMPLGMESKAISDAQITASSYFTNMFATWSPSKARLHLQGRSNAWRPQVNNPKEWLQVDFQKTMKVTGVTTQGVKSLLTSMYVKEFLISSSQDGHQWTLFFQNGKVKVFQGNQDSFTPVVNSLDPPLLTRYLRIHPQSWVHQIALRMEVLGCEAQDLY
Inactivation (nM FVIIIa/min/nM APC) [6]: 5.4 nM FVIIIa/min/nM APC

B2: 562(P4-P2)336 factor VIII mutant (procofactor) (other)
chain 1: ATRRYYLGAVELSWDYMQSDLGELPVDARFPPRVPKSFPFNTSVVYKKTLFVEFTVHLFNIAKPRPPWMGLLGPTIQAEVYDTVVITLKNMASHPVSLHAVGVSYWKASEGAEYDDQTSQREKEDDKVFPGGSHTYVWQVLKENGPMASDPLCLTYSYLSHVDLVKDLNSGLIGALLVCREGSLAKEKTQTLHKFILLFAVFDEGKSWHSETKNSLMQDRDAASARAWPKMHTVNGYVNRSLPGLIGCHRKSVYWHVIGMGTTPEVHSIFLEGHTFLVRNHRQASLEISPITFLTAQTLLMDLGQFLLFCHISSHQHDGMEAYVKVDSCPEEPQLRMKNNEEAEDYDDDLTDSEMDVVRFDDDNSPSFIQIRSVAKKHPKTWVHYIAAEEEDWDYAPLVLAPDDRSYKSQYLNNGPQRIGRKYKKVRFMAYTDETFKTREAIQHESGILGPLLYGEVGDTLLIIFKNQASRPYNIYPHGITDVRPLYSRRLPKGVKHLKDFPILPGEIFKYKWTVTVEDGPTKSDPRCLTRYYSSFVNMERDLASGLIGPLLICYKESPQLRGNQIMSDKRNVILFSVFDENRSWYLTENIQRFLPNPAGVQLEDPEFQASNIMHSINGYVFDSLQLSVCLHEVAYWYILSIGAQTDFLSVFFSGYTFKHKMVYEDTLTLFPFSGETVFMSMENPGLWILGCHNSDFRNRGMTALLKVSSCDKNTGDYYEDSYEDISAYLLSKNNAIEPR
chain 2: B1 chain 3
fold increase of rate of generation of the A2c fragment compared with WT factor VIII [7]: 6 fold

B3: 562(P4-P3′)336 factor VIII mutant (procofactor) (other)
chain 1: B2 chain 1 with G563M, N564K, Q565N
chain 2: B1 chain 3
fold increase of rate of generation of the A2c fragment compared with WT factor VIII [7]: 27 fold

B4: 336(P4-P2)562 factor VIIIa mutant (other)
chain 1: B1 chain 1 with P333V, Q334D, L335Q
chain 2: B1 chain 2
chain 3: B1 chain 3
fold reduction of inactivation rate compared to WT factor VIIIa [7]: 6 to 11 fold | Inactivation (nM FVIIIa/min/nM APC) [6]: 0.5 nM FVIIIa/min/nM APC

B5: 336(P1′-P3′)562 factor VIIIa mutant (other)
chain 1: B1 chain 1 with M337G, K338N, N339Q
chain 2: B1 chain 2
chain 3: B1 chain 3
fold reduction of inactivation rate compared to WT factor VIIIa [7]: 6 to 11 fold | Inactivation (nM FVIIIa/min/nM APC) [6]: 0.9 nM FVIIIa/min/nM APC

B6: 336(P4-P3′)562 factor VIIIa mutant (other)
chain 1: B1 chain 1 with P333V, Q334D, L335Q, M337G, K338N, N339Q
chain 2: B1 chain 2
chain 3: B1 chain 3
notes: residues 333-339 replaced by residues 559-565; also called fully substituted P4-P3′ mutant
Ki [8]: 36 nM | Inactivation (nM FVIIIa/min/nM APC) [6]: 0.8 nM FVIIIa/min/nM APC | fold Ki less than the Km for WT substrate [9]: ~3 fold
